The Kd is a measure of binding affinity in units of concentration. The low end stands for tighter binding, the high end for weaker binding.

Substitutions are numbered along the chain they refer to. Names and notes keep the numbering of the source.

The values that follow come from PMC9352680, “A comprehensive thermodynamic model for RNA binding by the Saccharomyces cerevisiae Pumilio protein PUF4”.

T1: PUF4 RNA-binding domain (Saccharomyces cerevisiae, UniProt P25339 537-888)
T1 sequence: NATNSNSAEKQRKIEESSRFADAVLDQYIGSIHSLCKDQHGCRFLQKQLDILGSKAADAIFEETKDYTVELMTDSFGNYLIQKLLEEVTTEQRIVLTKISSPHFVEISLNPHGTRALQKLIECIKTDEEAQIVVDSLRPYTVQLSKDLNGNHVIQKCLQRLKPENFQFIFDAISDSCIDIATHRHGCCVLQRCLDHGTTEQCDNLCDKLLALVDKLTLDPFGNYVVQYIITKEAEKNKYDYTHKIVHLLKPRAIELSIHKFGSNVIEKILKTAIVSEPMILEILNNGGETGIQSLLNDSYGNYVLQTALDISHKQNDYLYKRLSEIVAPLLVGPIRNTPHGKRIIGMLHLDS

B1: Id_ii_S2_P3E.3_K3.2_C3.2_[T-1G]_H3.2_A3.1_F3.1_T3.2 (ssRNA)
RNA: UUUGAUUAAUAUGAUAUCGUUCUUUCUCGUAUAUAUAUAUUCUUUCUCGAUAUCAUAUUAAUCUUU
B2: Id_ii_S2_P3E.4_K3.3_C3.2_[C-2G]_[T-1C]_H3.3_A3.1_F3.1_T3.2_[T9C]_[A10G] (ssRNA)
RNA: B1 RNA with C28G, G29C, U30A, A31C, U32A, A33C, U38C, A39G
B3: Id_ii_S2_P3E.4_K3.3_C3.2_[C-2T]_H3.3_A3.1_F3.1_T3.2_[T9C]_[A10T] (ssRNA)
RNA: B1 RNA with C28U, G29U, U30A, A31C, U32A, A33C, U38C, A39U
B4: Id_ii_S2_P3E.3_K3.2_C3.2_H3.2_A3.1_F3.1_T3.2_[T9A] (ssRNA)
RNA: B1 RNA with G29U, U38A
B5: Id_ii_S2_P3E.3_K3.2_C3.2_H3.2_A3.1_F3.1_T3.2_[T9A]_[A10T] (ssRNA)
RNA: B1 RNA with G29U, U38A, A39U
B6: Id_ii_S2_P3E.4_K3.3_C3.2_[C-2T]_[T-1C]_H3.3_A3.1_F3.1_T3.2_[A10T] (ssRNA)
RNA: B1 RNA with C28U, G29C, U30A, A31C, U32A, A33C, A39U
B7: Id_ii_S2_P3E.3_K3.2_C3.2_[T-1C]_H3.2_A3.1_F3.1_T3.2_[T9C] (ssRNA)
RNA: B1 RNA with G29C, U38C
B8: Id_ii_S2_P3E.3_K3.2_C3.2_H3.2_A3.1_F3.1_T3.2_[A10T] (ssRNA)
RNA: B1 RNA with G29U, A39U
B9: Id_ii_S2_P3E.3_K3.2_C3.2_[T-1A]_H3.2_A3.1_F3.1_T3.2_[T9C] (ssRNA)
RNA: B1 RNA with G29A, U38C
B10: Id_ii_S2_P3E.3_K3.2_C3.2_H3.2_A3.1_F3.1_T3.2_[T9C]_[A10G] (ssRNA)
RNA: B1 RNA with G29U, U38C, A39G
B11: Id_ii_S2_P3E.4_K3.3_C3.2_[C-2T]_H3.3_A3.1_F3.1_T3.2_[A10G] (ssRNA)
RNA: B1 RNA with C28U, G29U, U30A, A31C, U32A, A33C, A39G
B12: Id_ii_S2_P3E.3_K3.2_C3.2_H3.2_A3.1_F3.1_T3.2_[T9C]_[A10C] (ssRNA)
RNA: B1 RNA with G29U, U38C, A39C
B13: Id_ii_S2_P3E.3_K3.2_C3.2_H3.2_A3.1_F3.1_T3.2 (ssRNA)
RNA: B1 RNA with G29U
B14: Id_ii_S2_P3E.4_K3.3_C3.2_[C-2G]_[T-1C]_H3.3_A3.1_F3.1_T3.2_[T9A]_[A10C] (ssRNA)
RNA: B1 RNA with C28G, G29C, U30A, A31C, U32A, A33C, U38A, A39C
B15: Id_ii_S2_P3E.3_K3.2_C3.2_[T-1A]_H3.2_A3.1_F3.1_T3.2_[A10C] (ssRNA)
RNA: B1 RNA with G29A, A39C
B16: Id_ii_S2_P3E.3_K3.2_C3.2_[T-1A]_H3.2_A3.1_F3.1_T3.2_[T9G]_[A10T] (ssRNA)
RNA: B1 RNA with G29A, U38G, A39U
B17: Id_ii_S2_P3E.3_K3.2_C3.2_[T-1C]_H3.2_A3.1_F3.1_T3.2_[T9A]_[A10T] (ssRNA)
RNA: B1 RNA with G29C, U38A, A39U
B18: Id_ii_S2_P3E.3_K3.2_C3.2_[T-1C]_H3.2_A3.1_F3.1_T3.2_[T9A]_[A10G] (ssRNA)
RNA: B1 RNA with G29C, U38A, A39G
B19: Id_ii_S2_P3E.4_K3.3_C3.2_[C-2T]_[T-1C]_H3.3_A3.1_F3.1_T3.2_[T9C]_[A10C] (ssRNA)
RNA: B1 RNA with C28U, G29C, U30A, A31C, U32A, A33C, U38C, A39C
B20: Id_ii_S2_P3E.3_K3.2_C3.2_[T-1C]_H3.2_A3.1_F3.1_T3.2 (ssRNA)
RNA: B1 RNA with G29C
B21: Id_ii_S2_P3E.4_K3.3_C3.2_[C-2G]_[T-1C]_H3.3_A3.1_F3.1_T3.2_[T9C] (ssRNA)
RNA: B1 RNA with C28G, G29C, U30A, A31C, U32A, A33C, U38C
B22: Id_ii_S2_P3E.4_K3.3_C3.2_[C-2G]_H3.3_A3.1_F3.1_T3.2_[A10C] (ssRNA)
RNA: B1 RNA with C28G, G29U, U30A, A31C, U32A, A33C, A39C

The series concerns the target T1, PUF4 RNA-binding domain. In words: Mg; RNA-MaP; 20 mM Na-HEPES pH 7.4, 30 mM KOAc, 0.75 mM MgCl2, 0.1% Tween-20, 5% glycerol, 0.1 mg/mL BSA, 2 mM DTT; 25 C; 0.0125-409.6 nM protein. The settings on record: tags: N-His6-TEV cleaved; C-SNAP kept, Cy3B-labelled; label: tethered on chip by stalled RNA polymerase.
UCUCUUUAUAUUAUAAUCUCUU (ssRNA) [Ib_S1_P5E.1_K5.1_C5.1_H5.1_[G2A]_A5.1_F5.1_[T9A]_T5.1] registered a dissociation constant Kd of 124 nM. With UCUCUUUAUAUUAUCAUCUCUU (ssRNA) [Ib_S1_P5E.1_K5.1_C5.1_H5.1_[G2A]_A5.1_F5.1_[T9C]_T5.1], binding was put at a Kd of 641 nM. In turn, UCUCUUUGCAUUAUAAUCUCUU (ssRNA) [Ib_S1_P5E.1_K5.1_C5.1_H5.1_[T3C]_A5.1_F5.1_[T9A]_T5.1] yielded a Kd of 1400 nM. UCUCUUUGUGUUAUGAUCUCUU (ssRNA) [Ib_S1_P5E.1_K5.1_C5.1_H5.1_[A4G]_A5.1_F5.1_[T9G]_T5.1] displayed an equilibrium dissociation constant (Kd) of 750 nM.

The molecule B1 yielded a Kd of 160 nM. This Kd lies about 4.7-fold lower than the previous one. Molecule B2 yielded a Kd of 817 nM. On to B3, for which the Kd was found to be 670 nM.

The molecule B4 gave a Kd of 401 nM. To B5 belongs 121 nM. To B6 belongs 940 nM. In the case of B7, binding was characterised by a dissociation constant (Kd) of 84.9 nM. To B8 belongs 72.5 nM. The molecule B9 had a Kd of 198 nM.

As to B10, the Kd is 292 nM. B11 returned a Kd of more than 2300 nM. B12 returned an equilibrium dissociation constant (Kd) of 115 nM. In turn, B13 displayed a Kd of 54.4 nM. To B14 belongs 31.9 nM; to B15, 227 nM; to B16, 447 nM.

B17 returned a Kd of 93.1 nM. Turning to B18, the Kd stood at 739 nM. Take B19: the dissociation constant (Kd) stood at 1970 nM. Compared with the last molecule, the Kd is about 2.7-fold higher.

The molecule B20 showed a Kd of 42.2 nM. Compared with the last molecule, the Kd is about 47-fold lower. The molecule B21 came in with a Kd of 78 nM. B22 came in with a Kd of 0.486 nM.
